Experimental data as given in publication PMC10047360.

How the values were obtained:
[1] = Western blot of overexpressed LRP6; settings: glycan changed form; control: wild-type HEK293T cells
[2] = cell-surface HiBiT/LgBiT luminescence to mCherry ratio; settings: glycan changed form; control: HiBiT-LRP6-mCherry alone

B1: LRP6: B3GnT2−/− (protein)
parent chain: MGAVLRSLLACSFCVLLRAAPLLLYANRRDLRLVDATNGKENATIVVGGLEDAAAVDFVFSHGLIYWSDVSEEAIKRTEFNKTESVQNVVVSGLLSPDGLACDWLGEKLYWTDSETNRIEVSNLDGSLRKVLFWQELDQPRAIALDPSSGFMYWTDWGEVPKIERAGMDGSSRFIIINSEIYWPNGLTLDYEEQKLYWADAKLNFIHKSNLDGTNRQAVVKGSLPHPFALTLFEDILYWTDWSTHSILACNKYTGEGLREIHSDIFSPMDIHAFSQQRQPNATNPCGIDNGGCSHLCLMSPVKPFYQCACPTGVKLLENGKTCKDGATELLLLARRTDLRRISLDTPDFTDIVLQLEDIRHAIAIDYDPVEGYIYWTDDEVRAIRRSFIDGSGSQFVVTAQIAHPDGIAVDWVARNLYWTDTGTDRIEVTRLNGTMRKILISEDLEEPRAIVLDPMVGYMYWTDWGEIPKIERAALDGSDRVVLVNTSLGWPNGLALDYDEGKIYWGDAKTDKIEVMNTDGTGRRVLVEDKIPHIFGFTLLGDYVYWTDWQRRSIERVHKRSAEREVIIDQLPDLMGLKATNVHRVIGSNPCAEENGGCSHLCLYRPQGLRCACPIGFELISDMKTCIVPEAFLLFSRRADIRRISLETNNNNVAIPLTGVKEASALDFDVTDNRIYWTDISLKTISRAFMNGSALEHVVEFGLDYPEGMAVDWLGKNLYWADTGTNRIEVSKLDGQHRQVLVWKDLDSPRALALDPAEGFMYWTEWGGKPKIDRAAMDGSERTTLVPNVGRANGLTIDYAKRRLYWTDLDTNLIESSNMLGLNREVIADDLPHPFGLTQYQDYIYWTDWSRRSIERANKTSGQNRTIIQGHLDYVMDILVFHSSRQSGWNECASSNGHCSHLCLAVPVGGFVCGCPAHYSLNADNRTCSAPTTFLLFSQKSAINRMVIDEQQSPDIILPIHSLRNVRAIDYDPLDKQLYWIDSRQNMIRKAQEDGSQGFTVVVSSVPSQNLEIQPYDLSIDIYSRYIYWTCEATNVINVTRLDGRSVGVVLKGEQDRPRAVVVNPEKGYMYFTNLQERSPKIERAALDGTEREVLFFSGLSKPIALALDSRLGKLFWADSDLRRIESSDLSGANRIVLEDSNILQPVGLTVFENWLYWIDKQQQMIEKIDMTGREGRTKVQARIAQLSDIHAVKELNLQEYRQHPCAQDNGGCSHICLVKGDGTTRCSCPMHLVLLQDELSCGEPPTCSPQQFTCFTGEIDCIPVAWRCDGFTECEDHSDELNCPVCSESQFQCASGQCIDGALRCNGDANCQDKSDEKNCEVLCLIDQFRCANGQCIGKHKKCDHNVDCSDKSDELDCYPTEEPAPQATNTVGSVIGVIVTIFVSGTVYFICQRMLCPRMKGDGETMTNDYVVHGPASVPLGYVPHPSSLSGSLPGMSRGKSMISSLSIMGGSSGPPYDRAHVTGASSSSSSSTKGTYFPAILNPPPSPATERSHYTMEFGYSSNSPSTHRSYSYRPYSYRHFAPPTTPCSTDVCDSDYAPSRRMTSVATAKGYTSDLNYDSEPVPPPPTPRSQYLSAEENYESCPPSPYTERSYSHHLYPPPPSPCTDSS
- expression_or_secretion [1]: increases

B2: LRP6: hB3GnT2 co-expression (protein)
parent chain: MGAVLRSLLACSFCVLLRAAPLLLYANRRDLRLVDATNGKENATIVVGGLEDAAAVDFVFSHGLIYWSDVSEEAIKRTEFNKTESVQNVVVSGLLSPDGLACDWLGEKLYWTDSETNRIEVSNLDGSLRKVLFWQELDQPRAIALDPSSGFMYWTDWGEVPKIERAGMDGSSRFIIINSEIYWPNGLTLDYEEQKLYWADAKLNFIHKSNLDGTNRQAVVKGSLPHPFALTLFEDILYWTDWSTHSILACNKYTGEGLREIHSDIFSPMDIHAFSQQRQPNATNPCGIDNGGCSHLCLMSPVKPFYQCACPTGVKLLENGKTCKDGATELLLLARRTDLRRISLDTPDFTDIVLQLEDIRHAIAIDYDPVEGYIYWTDDEVRAIRRSFIDGSGSQFVVTAQIAHPDGIAVDWVARNLYWTDTGTDRIEVTRLNGTMRKILISEDLEEPRAIVLDPMVGYMYWTDWGEIPKIERAALDGSDRVVLVNTSLGWPNGLALDYDEGKIYWGDAKTDKIEVMNTDGTGRRVLVEDKIPHIFGFTLLGDYVYWTDWQRRSIERVHKRSAEREVIIDQLPDLMGLKATNVHRVIGSNPCAEENGGCSHLCLYRPQGLRCACPIGFELISDMKTCIVPEAFLLFSRRADIRRISLETNNNNVAIPLTGVKEASALDFDVTDNRIYWTDISLKTISRAFMNGSALEHVVEFGLDYPEGMAVDWLGKNLYWADTGTNRIEVSKLDGQHRQVLVWKDLDSPRALALDPAEGFMYWTEWGGKPKIDRAAMDGSERTTLVPNVGRANGLTIDYAKRRLYWTDLDTNLIESSNMLGLNREVIADDLPHPFGLTQYQDYIYWTDWSRRSIERANKTSGQNRTIIQGHLDYVMDILVFHSSRQSGWNECASSNGHCSHLCLAVPVGGFVCGCPAHYSLNADNRTCSAPTTFLLFSQKSAINRMVIDEQQSPDIILPIHSLRNVRAIDYDPLDKQLYWIDSRQNMIRKAQEDGSQGFTVVVSSVPSQNLEIQPYDLSIDIYSRYIYWTCEATNVINVTRLDGRSVGVVLKGEQDRPRAVVVNPEKGYMYFTNLQERSPKIERAALDGTEREVLFFSGLSKPIALALDSRLGKLFWADSDLRRIESSDLSGANRIVLEDSNILQPVGLTVFENWLYWIDKQQQMIEKIDMTGREGRTKVQARIAQLSDIHAVKELNLQEYRQHPCAQDNGGCSHICLVKGDGTTRCSCPMHLVLLQDELSCGEPPTCSPQQFTCFTGEIDCIPVAWRCDGFTECEDHSDELNCPVCSESQFQCASGQCIDGALRCNGDANCQDKSDEKNCEVLCLIDQFRCANGQCIGKHKKCDHNVDCSDKSDELDCYPTEEPAPQATNTVGSVIGVIVTIFVSGTVYFICQRMLCPRMKGDGETMTNDYVVHGPASVPLGYVPHPSSLSGSLPGMSRGKSMISSLSIMGGSSGPPYDRAHVTGASSSSSSSTKGTYFPAILNPPPSPATERSHYTMEFGYSSNSPSTHRSYSYRPYSYRHFAPPTTPCSTDVCDSDYAPSRRMTSVATAKGYTSDLNYDSEPVPPPPTPRSQYLSAEENYESCPPSPYTERSYSHHLYPPPPSPCTDSS
- localisation_or_trafficking, fold_change [2]: increases
